Measurements reported in the nanobody polyreactivity screen of Harvey et al. (2022).

test: yeast display, Sf9 membrane polyspecificity reagent, FACS + sequencing; frameworks hold sequencing errors
Method in brief: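 Genes from sorted yeast were amplified by colony PCR, read by MiSeq 2 × 250 sequencing and filtered on CDR length. These cells carried a synthetic nanobody library in Saccharomyces cerevisiae BJ5465 and were sorted by FACS into low and high (top ~1%) gates on anti-HA and streptavidin fluorescence. Polyreactivity is labelled according to the gate of origin.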

Sequence	polyreactivity (PSR sort gate)
QVQLVESGGGLVQAGGSLRLSCAASGRTFYYYAMGWYRQAPGNERELVAAISRGGGTNYADSVKGRFTISRDNAKNTVYLQMNSLKPEDTAVYYCAAARIGPQRYDYWGHGTQVTVSS	high polyreactivity
QVQLVESGGGLVQAGGSLRLSCAASGRTFYYYTMGWYRQAPGKERELVAAISVSGGSTYYADSVKGRFTISRDNAKNTVYLQMNSLKPEDTAVYYCAAGDGWGRRYYWGQGTQVTVSS	high polyreactivity
QVQLVESGGGLVQAGGSLRLSCAASGRTFYYYTMGWYRQAPGKERELVAAITWNGGSTYYADSVKGRFTISRDNAKNTVYLQMNSLKPEDTGVYYCIARWTWRYDYWGQGTQVTLSS	high polyreactivity
QVQLVESGGGLVQAGGSLRLSCAASGRTIDSYAMGWSRQAPGKEREFVAAISYSGTSTYYADSVKGRFTISRDNAKNTVYLQMNSLKPEDTAVYYCSKEYNFRLWGQGTQVTVSS	low polyreactivity
QVQLVESGGGLVQAGGSLRLSCAASGRTIDYNGMGWYRQAPGKEREMVAVISSSGGSTFYADSVKGRFTISRDNAKNTVYLQMNSLKPEDTAVYYSAADFIVAYTLHGSYDYWGQGTQVTVSS	low polyreactivity
QVQLVESGGGLVQAGGSLRLSCAASGRTIGFNGMGWYRQAPGKERELVAAITRSGGNTYADSVKGRFTISRDNAKNTVYLQMNSLKPEDTAVYYCATTYVGVTLTGPGDYWGQGTQVTVSS	low polyreactivity
QVQLVESGGGLVQAGGSLRLSCAASGRTIGLNGMGWYRQAPGNERELVAGISWSGGSTNYADSVKGRFTISRDNAKNTVYLQMNSLKPEDTAVNYCPPDFVYYVVNDFGWSYAYEYWGQGTQVTVSS	low polyreactivity
QVQLVESGGGLVQAGGSLRLSCAASGRTIGVYAMGWYRQAPGKERELVAAISWSGGTTYYADSVKGRFTISRDNAKNTVYLQMNSLKPEDTAVYYCAADSYTEVEYWGQGTQVTVSS	low polyreactivity
QVQLVESGGGLVQAGGSLRLSCAASGRTIHYYAMGRSRQAPGKERELVAAITRGGNTYYADSVKGRFTISRDNAKNTVYLQMNSLKPEDTAVYYCAKDNHFEAYRYDYWGQGTQVTVSS	high polyreactivity
QVQLVESGGGLVQAGGSLRLSCAASGRTIKKYTMGWSRQAPGKERELVAVITSGGSTYYADSVKGRFTISRDNAKNTVYFQMNSLKPEDTAVYYCAVIYPELRTWGYYFWGQGTQVTVSS	high polyreactivity
QVQLVESGGGLVQAGGSLRLSCAASGRTIKYNAMGRYRQGPGKERELVAAITYSGGSTYYADSVKGRFTIARDNAKNTVYLQMNSLKPEDTSVYYCAAESRPYDPGIYGDYDYWGQGTQVTVSS	low polyreactivity
QVQLVESGGGLVQAGGSLRLSCAASGRTIKYYAMGWYRQAPGKERELVAVISWSGGSTYYADSVKGRFTISRDNAKNTVYLQMNSLKPEDTAVYYCNAVHQYRRRYNYWGQGTQVTVSS	high polyreactivity
QVQLVESGGGLVQAGGSLRLSCAASGRTINRSAMGWYRQAPGKARELVAAISTSGGTTYYADSVKGRFTISRDNAQNTAYLQMNSLKPEDPADYYCAKRGPVRTQYTYYYWGQGTQVTVSS	high polyreactivity
QVQLVESGGGLVQAGGSLRLSCAASGRTINRYAMGWYRQAPGKERELVAAISTSGGTTYYADSVKGRFTISRDNAKNTVYLQMNSLKPEDSAVYYCAAVARRGSYLGQRLDYWGQGTQVTVSS	high polyreactivity
QVQLVESGGGLVQAGGSLRLSCAASGRTIPFYAMGWYRQAHGKERELVDAIDSGGNTYADSVKGRFTISRDNAKNTVYLQMISLKPEDTAVYYCAVDGGEFSSYGYWGQGTQVTVSS	low polyreactivity
QVQLVESGGGLVQAGGSLRLSCAASGRTIPNYAMGWTRQAPGKERELVAAISSSGDRTYYADSVKGRFTISRDNAKNTVYLQMNSLKPEDTAVYYCAADRGARGDYWGQGTQVTVSS	high polyreactivity
QVQLVESGGGLVQAGGSLRLSCAASGRTIRGYAMGWYRQAPGKERELVAAITRSGGSTFADSVKGRFTISRDNAKNTVYLQMNSLKPEDTAVYYCAADRGYKYYYWGQGTQVTVSS	high polyreactivity
QVQLVESGGGLVQAGGSLRLSCAASGRTIRHNAMGWYRQAPGKERELVAAISRSGGSTYYADSVKGRFTISRDNAKNTVYLQMNSLKPEDTAVYYCAAGYHIIYTPEYYYWGQGTQVTVSS	high polyreactivity
QVQLVESGGGLVQAGGSLRLSCAASGRTIRWNAMGGSRPAPGKERELVAAITSRGGSTYYADSVKGRFTISRDNAKNTVYLQMNSLKPEDTAVYYCAAGGRYGDDYWGQGTQVTVSS	high polyreactivity
QVQLVESGGGLVQAGGSLRLSCAASGRTIVSNAMGWYRQAPGKERELVAAITRGSRTYYADSVKGRFTISRDNAKNTVYLQMNILKPEDTAVYYCAAYRDYGSYGSWGQGTQVTVSS	high polyreactivity
QVQLVESGGGLVQAGGSLRLSCAASGRTIWNYALGWYRQGPGKERELVAVIRFSDGSTYYADSVKGRFTISRDNAKNTVYLQMNSLKPEDTAVYYCAAKGPRLWGSGFDYWGQGTQVTVSS	low polyreactivity

Sequence	polyreactivity (PSR sort gate)
QVQLVESGGGLVQAGGSLRLSCAASGRTIYRNAMGWYRQAPGKERELVAAITSGGSTNYADSVKGRFTLSRDNAKNTGYLQMNSLKPEDTAVYYCAATRGRYLWYYRYDYWGQGTQVTVSS	high polyreactivity
QVQLVESGGGLVQAGGSLRLSCAASGRTIYYYAMGWYRQAPGKERELVAAISRSGSSTFYADSVKGRFTISRDNAKNTVYLQMNSLKPEDTAVYYCAADDYSRRVYFFFGAYDYWGQGTQVTVSS	high polyreactivity
QVQLVESGGGLVQAGGSLRLSCAASGRTLAHYTMGWYRQAPGKERELVAAITFSGGRTYYADSVKGRFTISRDNAKNTVYLQMNSQKPEDTAVYYCAAPGRWYYRGDDYWGQGTQVTVSS	low polyreactivity
QVQLVESGGGLVQAGGSLRLSCAASGRTLARNAMGWDRQAPGKEWELVASINGRTTRTYYADSVKGRFTISRDNANNTVYLQRNSLKPEDTAVYYCAADPPGYVYGKRYYWGQGTQVTVSS	high polyreactivity
QVQLVESGGGLVQAGGSLRLSCAASGRTLARNAMGWYRQAPGKERELVASINGRTTRTYYADSVKGRFTISRDNAKNTVYFQMNSLKPEDPAVYYCAADPPGYVYGKRYYWGQGTQVTVSS	high polyreactivity
QVQLVESGGGLVQAGGSLRLSCAASGRTLARTALGWYRQAPGKERELVAAISRRAVRTYYADSVKGRFTISRDNAKNTVYLQMNILKPEDTAVYYCYAASSLPGYDYWGQGTQVTVSS	high polyreactivity
QVQLVESGGGLVQAGGSLRLSCAASGRTLFPNVMGWYRQAPGKERELVAAIRGTGGSTYADSVKGRVTISRDNAKNTVYLQMNSLKPEDTAVYYCAAGYPVTRRTIRFDYWGQGTQVTVSS	high polyreactivity
QVQLVESGGGLVQAGGSLRLSCAASGRTLFTIAMGWYRQAPGKERELLAAISIGGTTYYADSVKGRFTISRDYAKNTVYLQMNSLKPEDTAVYYCNKVRRFHSEYGYWGQGTQVTVSS	high polyreactivity
QVQLVESGGGLVQAGGSLRLSCAASGRTLFWNAMGWYRQAPGKEREFVAAIRWRGGSTYYADSVKGRFTISRDNAKNTVYLQMNSLKPEDTAVYYCGAAVRPYKRQDDYWGQGTQVSVSS	high polyreactivity
QVQLVESGGGLVQAGGSLRLSCAASGRTLGTNAMGWYRQAPGKERELVATISRGGITNYADSVKGRFTISRDNPKNTVYLQMNSLKPEDTAVYYCNVRYQHVYRGYGPNKYNYWGQGTQVTVSS	high polyreactivity
QVQLVESGGGLVQAGGSLRLSCAASGRTLGYNAMGWYRQAPGKARELVASINSGVSTNYADSVQGRFTISRDNAKNTVYLQMNSLKPEDTAVYYCAAEKYGRGAGREGWESDYWGQGTQVTVSS	low polyreactivity
QVQLVESGGGLVQAGGSLRLSCAASGRTLGYYAKGWYRQAPGKERELVAAISRSGGSTYYADSVKGRFTISRDNAKNTVYLQMNSLKPEDTAVYYCAATYGPSRYRYDYWGQGTQVTVSS	high polyreactivity
QVQLVESGGGLVQAGGSLRLSCAASGRTLIYYAMGWYRQAPGKERELVAAISSSGTSTYYADSVKGRFTISRDNAKNTVYLQMNSLKPEDTAVYYCAADGRTLGRRYYYWGQGTQVTVSS	high polyreactivity
QVQLVESGGGLVQAGGSLRLSCAASGRTLLLNTMGWYRQAPGKERELVAAISWRDGSTYYADSVKGRFTFSRDKAKNTVYLLMNSLKPEDTAVYYCNARLSGRSQYDVRFDYWGQGTQVTVSS	low polyreactivity
QVQLVESGGGLVQAGGSLRLSCAASGRTLLPNAMGWSRQAPGKERELVASIRDGGDTNYADSVKGRFTISRDNAKNTVYLQMNSLKPEDTAVYYCNADWWAYYSFGHEYWGQGTQVTVSS	low polyreactivity
QVQLVESGGGLVQAGGSLRLSCAASGRTLLSPNAMGWYRQAPGKARELVAVISWSDGSTYYADSVKGRFTISRDNANNTVYLQMNSLKPEDTAVYYSAASDPFEASQYKYDYWGQGTQVTVSS	low polyreactivity
QVQLVESGGGLVQAGGSLRLSCAASGRTLNAYAMGWYRHAPGKERELVAAITWDDGSTYYAHSVKGRFTISRDNAKNTVSLQMNSLKPEDSAVYYCAAYAYNAIEYGYWGQGTQVNVSS	low polyreactivity
QVQLVESGGGLVQAGGSLRLSCAASGRTLPFNAMGWYRQAPGKERELVAAITRGGSTNYADSVKGRFTISRDNAKNTVYLQMNSLKPEDTAVYYCAARRYAWYGYRAYDYWGQGTQVTVSS	high polyreactivity
QVQLVESGGGLVQAGGSLRLSCAASGRTLQHYAMGWYRQAPGKERELVAGITKNGGSTYYADSVKGRFTISRDNAKNTVYLQMNSLKPEDTAVYYCAKRWGGYSIPLDYDYWGQGTQVTVSS	low polyreactivity
QVQLVESGGGLVQAGGSLRLSCAASGRTLQWYAMGWYRQAPGKERELVATISSGGSTKYADSVKGRFTISRDNAKNTVYLQMNSLKPEDTAVYYCNAQPYGIYYHRYYYWGQGTQVTVSS	low polyreactivity
